What was measured:
Experiment in all cases: BLI, biotinylated S1 variant on streptavidin sensor
[1] = target: T1, SARS-COV2 突变株 S1 Omicron BA.2 (SARS-CoV-2 Omicron BA.2, UniProt P0DTC2 16-685)
T1 construct: domain: S1; also called Omicron BA.2的S1; Omicron突变体

[2] = target: T2, SARS-COV2 突变株 S1 Delta B.1.617.2 (SARS-CoV-2 Delta B.1.617.2, UniProt P0DTC2 16-685)
T2 construct: domain: S1; also called Delta B.1.617.2的S1; Delta突变体

[3] = target: T3, SARS-COV2 突变株 S1 Alpha B.1.1.7 (SARS-CoV-2 Alpha B.1.1.7, UniProt P0DTC2 16-685)
T3 construct: domain: S1; also called Alpha B.1.1.7的S1; Alpha突变体

B1: 纳米抗体Nb-H6 (VHH)
VHH: QLVESGGGLVQAGDSLRLSCAASERALSSFHMGWFRQAPGKQRAFVAAIKWRDGTTYYADSVKGRFTISRDNAKNTVYLQMNSLEPEDTAVYYCYYRGRWGTYWGQGTQVTVSS
- Kd [1]: 200 nM
- Kd [2]: 1120 nM
- Kd [3]: 1080 nM

Source: patent CN114773459A (UNIV SHENZHEN, dated 2022)
